Results from IntAct's records for PubMed 19277847.

B1: Junctophilin-2 (Mus musculus), Q9ET78 (parent)
chain: MSGGRFDFDDGGAYCGGWEGGKAHGHGLCTGPKGQGEYSGSWNFGFEVAGVYTWPSGNTFEGYWSQGKRHGLGIETKGRWLYKGEWTHGFKGRYGIRQSTNSGAKYEGTWNNGLQDGYGTETYADGGTYQGQFTNGMRHGYGVRQSVPYGMAVVVRSPLRTSLSSLRSEHSNGTVAPDSPAADGPMLPSPPVPRGGFALTLLATAEAARPQGLFTRGTLLGRLRRSESRTSLGSQRSRLSFLKSELSSGASDAASTGSLAEGAEGPDDAAAPFDADIDATTTETYMGEWKNDKRSGFGVSERSSGLRYEGEWLDNLRHGYGRTTLPDGHREEGKYRHNVLVKGTKRRVLPLKSSKVRQKVEHGVEGAQRAAAIARQKAEIAASRTSHAKAKAEAAEQAALAANQESNIARTLAKELAPDFYQPGPEYQKRRLLQEILENSESLLEPPERGLGTGLPERPRESPQLHERETPQPEGGPPSPAGTPPQPKRPRPGASKDGLLSPGSWNGEPGGEGSRPATPSDGAGRRSPARPASEHMAIEALQPPPAPSQEPEVAMYRGYHSYAVRTGPPEPPPLEDEQEPEPEPEPEVRRSDSAPPSPVSATVPEEEPPAPRSPVPAKQATLEPKPIVPKAEPKAKARKTEARGLSKAGAKKKGRKEVAQAKEAEVEVEEVPNTVLICMVILLNIGLAILFVHLLT
partner: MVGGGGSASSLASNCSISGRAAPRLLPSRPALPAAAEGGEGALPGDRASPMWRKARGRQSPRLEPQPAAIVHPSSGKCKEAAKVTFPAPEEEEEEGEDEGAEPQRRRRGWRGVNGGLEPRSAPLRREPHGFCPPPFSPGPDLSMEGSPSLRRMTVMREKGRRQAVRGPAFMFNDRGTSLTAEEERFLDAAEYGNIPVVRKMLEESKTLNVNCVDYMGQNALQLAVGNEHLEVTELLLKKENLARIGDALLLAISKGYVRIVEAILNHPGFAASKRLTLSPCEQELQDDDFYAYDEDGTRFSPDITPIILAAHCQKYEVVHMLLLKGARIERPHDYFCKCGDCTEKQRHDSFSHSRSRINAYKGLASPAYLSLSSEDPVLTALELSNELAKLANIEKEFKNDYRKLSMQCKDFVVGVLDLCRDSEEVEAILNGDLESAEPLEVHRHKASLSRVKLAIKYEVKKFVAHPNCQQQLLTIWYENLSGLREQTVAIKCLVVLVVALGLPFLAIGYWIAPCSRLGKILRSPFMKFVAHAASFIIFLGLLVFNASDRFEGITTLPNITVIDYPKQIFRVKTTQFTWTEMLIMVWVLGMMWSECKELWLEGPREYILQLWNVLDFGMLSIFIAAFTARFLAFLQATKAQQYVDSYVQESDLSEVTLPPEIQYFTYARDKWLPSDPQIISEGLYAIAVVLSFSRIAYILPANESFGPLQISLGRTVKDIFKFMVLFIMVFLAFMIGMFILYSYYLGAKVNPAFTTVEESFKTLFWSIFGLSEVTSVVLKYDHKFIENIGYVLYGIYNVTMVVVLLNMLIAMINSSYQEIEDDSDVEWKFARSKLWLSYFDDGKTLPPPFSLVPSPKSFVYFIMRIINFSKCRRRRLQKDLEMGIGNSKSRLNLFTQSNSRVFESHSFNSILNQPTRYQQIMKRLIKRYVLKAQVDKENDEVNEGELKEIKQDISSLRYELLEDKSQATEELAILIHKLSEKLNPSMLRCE

Variants of: B1
Conditions: with TRPC3, G1U2U3
With R216A the “effect of a mutation on the interaction” value was “decreasing interaction”.
For R222A, the “effect of a mutation on the interaction” value was “decreasing interaction”.
With E227A the “effect of a mutation on the interaction” value was “decreasing interaction”.
